Legend:
PTK7 (on HCT116 cells) = target: T1, PTK7 (on HCT116 cells) (UniProt Q13308); test: flow cytometry on HCT116 cells; conditions: live cells, PTK7 inferred, HSA beads: DPBS + 5 mM Mg2+, room temperature, 1 h, beads blocked with BSA/yeast tRNA, 4.5 g/L glucose, 5 mM MgCl2, 0.1 mg/ml yeast tRNA, 1 mg/ml …
T1 sequence: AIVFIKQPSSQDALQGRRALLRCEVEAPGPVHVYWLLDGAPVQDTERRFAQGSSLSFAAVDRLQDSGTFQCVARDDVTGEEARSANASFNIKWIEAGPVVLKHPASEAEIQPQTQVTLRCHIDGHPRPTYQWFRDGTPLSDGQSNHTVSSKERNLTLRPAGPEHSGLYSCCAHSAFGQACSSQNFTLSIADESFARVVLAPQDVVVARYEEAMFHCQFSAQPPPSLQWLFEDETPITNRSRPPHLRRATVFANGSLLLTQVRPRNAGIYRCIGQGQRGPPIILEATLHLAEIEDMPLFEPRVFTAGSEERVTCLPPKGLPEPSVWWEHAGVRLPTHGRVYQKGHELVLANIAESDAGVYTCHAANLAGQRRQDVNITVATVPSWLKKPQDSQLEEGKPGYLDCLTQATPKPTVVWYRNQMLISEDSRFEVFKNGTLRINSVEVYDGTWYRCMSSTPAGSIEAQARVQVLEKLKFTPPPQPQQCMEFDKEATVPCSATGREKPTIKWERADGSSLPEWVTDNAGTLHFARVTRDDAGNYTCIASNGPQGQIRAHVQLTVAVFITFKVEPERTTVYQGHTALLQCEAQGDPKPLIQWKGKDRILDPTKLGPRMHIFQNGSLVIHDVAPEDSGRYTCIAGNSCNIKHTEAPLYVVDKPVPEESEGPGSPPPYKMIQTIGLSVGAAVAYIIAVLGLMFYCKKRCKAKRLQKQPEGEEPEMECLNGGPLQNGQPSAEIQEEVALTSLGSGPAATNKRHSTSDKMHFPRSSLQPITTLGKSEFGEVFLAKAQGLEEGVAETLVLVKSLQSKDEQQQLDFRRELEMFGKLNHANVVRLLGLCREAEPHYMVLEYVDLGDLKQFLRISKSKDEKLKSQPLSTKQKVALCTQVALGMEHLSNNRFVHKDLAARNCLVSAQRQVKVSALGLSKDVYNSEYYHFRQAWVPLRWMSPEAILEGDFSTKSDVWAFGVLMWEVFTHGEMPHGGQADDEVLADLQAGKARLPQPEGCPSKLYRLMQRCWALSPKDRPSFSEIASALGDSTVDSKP

EpCAM (on HCT116 cells) = target: T2, EpCAM (on HCT116 cells) (UniProt P16422); test: flow cytometry on HCT116 cells; conditions: live cells, EpCAM inferred, HSA beads: DPBS + 5 mM Mg2+, room temperature, 1 h, beads blocked with BSA/yeast tRNA, 4.5 g/L glucose, 5 mM MgCl2, 0.1 mg/ml yeast tRNA, 1 mg/ml …
T2 sequence: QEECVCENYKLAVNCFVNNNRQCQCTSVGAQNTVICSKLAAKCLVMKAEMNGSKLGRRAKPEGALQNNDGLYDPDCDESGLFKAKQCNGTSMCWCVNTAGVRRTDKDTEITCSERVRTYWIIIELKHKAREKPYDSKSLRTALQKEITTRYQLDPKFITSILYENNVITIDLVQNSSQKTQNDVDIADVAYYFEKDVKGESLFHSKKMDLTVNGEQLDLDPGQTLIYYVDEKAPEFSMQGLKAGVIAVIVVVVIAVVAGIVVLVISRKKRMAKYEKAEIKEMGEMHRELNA

[1] = target: human serum albumin (HSA) (Homo sapiens) (UniProt P02768); test: flow cytometry on HSA-coated beads; conditions: HSA beads: DPBS + 5 mM Mg2+, room temperature, 1 h, beads blocked with BSA/yeast tRNA, cells: DPBS, 4.5 g/L glucose, 5 mM MgCl2, 0.1 mg/ml yeast tRNA, 1 mg/ml …
[2] = target: human serum albumin (HSA) (Homo sapiens) (UniProt P02768); test: flow cytometry; conditions: N = artificial base F; HSA beads: DPBS + 5 mM Mg2+, room temperature, 1 h, beads blocked with BSA/yeast tRNA; cells: DPBS, 4.5 g/L glucose, 5 mM MgCl2, 0.1 mg/ml yeast tRNA, 1 mg/ml …

## ATCTAACTGCTGCGCCGCCGGGAAAATACTGTACGGTTAGA [Sgc8]
PTK7 (on HCT116 cells)
  Kd: 3.2 nM

## CACTACAGAGGTTGCGTCTGTCCCACGTTGTCATGGGGGGTTGGCCTG [SYL3C]
EpCAM (on HCT116 cells)
  Kd: 321 nM

## NNATCTAACTGCTGCGCCGCCGGGAAAATACTGTACGGTTAGANN [Sgc8-F20]
[1]; N = artificial base F
  Kd: 403 nM

## NNATCTAACTGCTGCGCCGCCGGGANANTANTGTACGGTTAGANN [Sgc8-F23]
PTK7 (on HCT116 cells); N = artificial base F (3,5-bis(trifluoromethyl)benzene), 7 F
  Kd: 17.1 nM
[1]; 5 mM Mg2+, in the SYL3C section printed as 191.8 nM, N = artificial base F (3,5-bis(trifluoromethyl)benzene), 7 F
  Kd: 194 nM

## NNCACTACAGAGGTTGCGTCTGTCCCACGTTGTCATGGGGGGTTGGCCTGNN [SYL3C-F20]
[2]
  Kd: 1090 nM
EpCAM (on HCT116 cells); N = artificial base F
  Kd: 369 nM

Source: article PMC8989545
